This note sets out measurements from US20210054076A1 (Chugai, published 2021).

In one assay the target is T1, mouse CLDN4 (mouse, UniProt O35054 1-210).
T1 construct: whole, on cells; also called mCLDN4; BaF3_mCLDN4
T1 sequence (looked up): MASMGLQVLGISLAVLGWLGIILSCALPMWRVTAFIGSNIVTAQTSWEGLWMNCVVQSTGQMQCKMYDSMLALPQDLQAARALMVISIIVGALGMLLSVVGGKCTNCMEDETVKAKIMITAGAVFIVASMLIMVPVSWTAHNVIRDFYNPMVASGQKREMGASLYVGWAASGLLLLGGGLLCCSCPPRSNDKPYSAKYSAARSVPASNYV
Kind of assay: FACS on Ba/F3 transfectant, antibody 20 micro g/ml, FITC anti-human IgG. How it is done: (§1) To evaluate the binding activity and specificity of the generated CLDN6-TRABs against CLDN6 and other Claudin family antigens, FACS analysis was conducted as follows. Ba/F3 transfectants stably express a kind of protein selected from human CLDN3 (hCLDN3), human CLDN4 (hCLDN4), human CLDN6 (hCLDN6), human CLDN9 (hCLDN9), mouse CLDN3 (mCLDN3), mouse CLDN4 (mCLDN4) and mouse CLDN6 (mCLDN6), were generated using similar method described in WO2008/087978, and named BaF3_hCLDN3, BaF3_hCLDN4, BaF3_hCLDN6, BaF3_hCLDN9, BaF3 mCLDN3, BaF3 mCLDN4, BaF3 mCLDN6, respectively. Each of the CLDN6-TRABs (CH01/CD3, CH02/CD3, CH03/CD3, CH04/CD3) was incubated with the Ba/F3 transfectants at an antibody concentration of 20 micro g/ml in FACS buffer (0.5% BSA containing autoMACS Rinsing Solution, Miltenyl Biotec). Binding activities of each CLDN6-TRAB to the Claudin family proteins (hCLDN3, hCLDN4, hCLDN6, hCLDN9, mCLDN3, mCLDN4, mCLDN6) were examined by incubation of FITC-conjugated goat anti human IgG (BeckmanCoulter), represented as Geo-mean value. Sample processing was conducted on FACSVerse (BD).
(§2) Claudin family proteins have two extracellular domains. The sequence of the first extracellular domain in human CLDN9 is almost the same compared with the first extracellular domain of human CLDN6. For the second extracellular domain of human CLDN9, there are only two amino acids different from the ones at their corresponding positions in human CLDN6 (FIG. 2). The glutamine at position 156 of human Claudin 6 (position 156 in the sequence shown in SEQ ID NO: 44 or 45) was substituted to leucine to make a human CLDN6 mutant comprising the same amino acid as human Claudin 9 at position 156. This human CLDN6 mutant was named as hCLDN6(Q156L) (SEQ ID NO: 53). Ba/F3 transfectant stably express hCLDN6(Q156L) was generated using similar method described in WO2008/087978. The established Ba/F3 transfectant was named BaF3_hCLDN6(Q156L). Binding activity of the generated CLDN6-TRABs against BaF3_hCLDN6(Q156L) was measured using the above mentioned FACS method and the results are shown in FIG. 1 and Table 3.

A further assay has as its target T2, mouse CLDN3 (mouse, UniProt Q9Z0G9 1-219).
T2 construct: whole, on cells; also called mCLDN3; BaF3_mCLDN3
T2 sequence (looked up): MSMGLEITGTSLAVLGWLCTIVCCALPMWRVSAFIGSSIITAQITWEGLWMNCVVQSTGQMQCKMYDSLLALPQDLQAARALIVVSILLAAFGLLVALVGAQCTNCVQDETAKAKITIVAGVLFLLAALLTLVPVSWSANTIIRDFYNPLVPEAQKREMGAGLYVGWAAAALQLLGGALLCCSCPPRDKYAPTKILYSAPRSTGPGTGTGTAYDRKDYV
The description is as above. Here is the method: as §1, §2

For another assay, the target named is T3, human CLDN9 (human, UniProt O95484 1-217).
T3 construct: whole, on cells; also called hCLDN9; BaF3_hCLDN9
T3 sequence (looked up): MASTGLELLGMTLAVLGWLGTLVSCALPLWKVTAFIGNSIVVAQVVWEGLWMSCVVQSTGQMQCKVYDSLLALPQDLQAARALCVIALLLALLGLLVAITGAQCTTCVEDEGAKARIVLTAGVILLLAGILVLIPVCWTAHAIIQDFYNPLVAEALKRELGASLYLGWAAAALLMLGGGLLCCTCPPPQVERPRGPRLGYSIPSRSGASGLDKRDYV
Described as above. How it is done: as §1, §2

For the next assay, the target named is T4, human CLDN4 (human, UniProt O14493 1-209).
T4 construct: whole, on cells; also called hCLDN4; BaF3_hCLDN4
T4 sequence (looked up): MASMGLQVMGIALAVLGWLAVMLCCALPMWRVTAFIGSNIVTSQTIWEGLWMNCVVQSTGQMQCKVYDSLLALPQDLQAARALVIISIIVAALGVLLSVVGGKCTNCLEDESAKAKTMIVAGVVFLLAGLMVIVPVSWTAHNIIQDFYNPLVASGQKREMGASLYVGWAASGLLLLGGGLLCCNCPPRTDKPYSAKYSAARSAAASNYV
The description is as above. How it is done: as §1, §2

For assay [1], the target named is T5, human CLDN6 (human, UniProt P56747 1-220).
T5 sequence: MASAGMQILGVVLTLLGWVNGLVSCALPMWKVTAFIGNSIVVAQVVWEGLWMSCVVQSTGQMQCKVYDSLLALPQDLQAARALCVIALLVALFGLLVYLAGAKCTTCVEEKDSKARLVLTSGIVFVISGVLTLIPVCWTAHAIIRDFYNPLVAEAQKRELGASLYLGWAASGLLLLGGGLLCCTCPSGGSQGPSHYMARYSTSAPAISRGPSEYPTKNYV
The assay is described as above. Here is the method: as §1, §2

For a further assay, the target named is T6, mouse CLDN6 (mouse, UniProt Q9Z262 1-219).
T6 construct: whole, on cells; also called mCLDN6; BaF3_mCLDN6
T6 sequence (looked up): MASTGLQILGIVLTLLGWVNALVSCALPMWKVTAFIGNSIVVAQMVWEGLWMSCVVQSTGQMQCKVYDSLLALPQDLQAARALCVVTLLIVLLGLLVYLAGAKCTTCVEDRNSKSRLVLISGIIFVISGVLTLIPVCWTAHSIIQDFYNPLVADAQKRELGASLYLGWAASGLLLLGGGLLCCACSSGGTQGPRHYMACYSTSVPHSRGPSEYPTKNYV
The description is as above. How it is done:
as §1, §2

In the next assay the target is T7, human CLDN3 (human, UniProt O15551 1-220).
T7 construct: whole, on cells; also called hCLDN3; BaF3_hCLDN3
T7 sequence (looked up): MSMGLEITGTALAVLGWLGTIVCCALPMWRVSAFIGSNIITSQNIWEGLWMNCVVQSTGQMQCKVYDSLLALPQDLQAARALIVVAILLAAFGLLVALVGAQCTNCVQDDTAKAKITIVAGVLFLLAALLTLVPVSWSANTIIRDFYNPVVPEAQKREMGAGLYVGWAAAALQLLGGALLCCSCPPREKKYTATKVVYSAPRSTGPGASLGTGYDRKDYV
Described as above. How it is done:
as §1, §2

The next assay addresses T8, hCLDN6(Q156L) (human, UniProt P56747 1-220).
T8 construct: Stably expressed on Ba/F3 cells; also called human CLDN6 mutant; BaF3_hCLDN6(Q156L)
T8 chain: T5 sequence with Q156L
The description is as above. Here is the method: as §1, §2

Assay [2] has as its target T5, human CLDN6. Kind of assay: cell-based or functional assay.
The target of assay [3] is T5, human CLDN6. Kind of assay: cell-based or functional assay. This is another data set of the same source.

Numbering of substitutions follows the chain as printed.

As to isotype control (antibody), the Geo-mean value of FACS with mouse CLDN4 was found to be 31; with mouse CLDN3 it was 29; in the assay with human CLDN9, 96; with human CLDN4, 42; in the assay with human CLDN6 [1] it was 29; with mouse CLDN6, 43. Besides, the Geo-mean value of FACS was 78 with human CLDN3 and 62 with hCLDN6(Q156L).

B1: CH02/CD3 (bispecific antibody, human IgG1, kappa, N297A)
heavy 1: EVQVEQSGLELVKPGASVKISCKTSGYTFTEYTMHWVKQSHGKSLEWIGGINPNNGNTRYNQKFKDKATLTVDKSSRTAYMELHTLTSEDSAVYYCARCGDYDLFFFFAYWGQGTLVTVSAASTKGPSVFPLAPSSKSTSGGTAALGCLVKDYFPEPVTVSWNSGALTSGVHTFPAVLQSSGLYSLSSVVTVPSSSLGTQTYICNVNHKPSNTKVDKKVEPKSCDKTHTCPPCPAPELRGGPKVFLFPPKPKDTLMISRTPEVTCVVVDVSHEDPEVKFNWYVDGVEVHNAKTKPREEQYASTYRVVSVLTVLHQDWLNGKEYKCKVSNKALPAPIEKTISKAKGQPREPQVYTLPPSREEMTKNQVSLTCLVKGFYPSDIAVEWESNGQPENNYKTTPPYLDSDGSFFLYSKLTVDKSRWQQGNVFSCSVMHEALHNHYTQESLSLSP
light 1: DIVMTQFQKFMSTSVGDRVSVTCKASQNVGTNVAWYQQKPGQSPEALISSASSRFSGVPDRFTGSGSGTDFTLTITNVQSEDLADYFCQQYNSFPFTFGSGTELEIKRTVAAPSVFIFPPSDEQLKSGTASVVCLLNNFYPREAKVQWKVDNALQSGNSQESVTEQDSKDSTYSLSSTLTLSKADYEKHKVYACEVTHQGLSSPVTKSFNRGEC
heavy 2: QVQLVESGGGVVQPGGSLRLSCAASGFTFSNAWMHWVRQAPGKGLEWVAQIKDKSQNYATYVAESVKGRFTISRADSKNSIYLQMNSLKTEDTAVYYCRYVHYAAGYGVDIWGQGTTVTVSSASTKGPSVFPLAPSSKSTSGGTAALGCLVKDYFPEPVTVSWNSGALTSGVHTFPAVLQSSGLYSLSSVVTVPSSSLGTQTYICNVNHKPSNTKVDKKVEPKSCDKTHTCPPCPAPELRGGPKVFLFPPKPKDTLMISRTPEVTCVVVDVSHEDPEVKFNWYVDGVEVHNAKTKPREEQYASTYRVVSVLTVLHQDWLNGKEYKCKVSNKALPAPIEKTISKAKGQPREPQVYTLPPSRKEMTKNQVSLTCLVKGFYPSDIAVEWESNGQPENNYKTTPPYLDSDGSFFLYSKLTVDKSRWQQGNVFSCSVMHEALHNHYTQKSLSLSP
light 2: DIVMTQSPLSLPVTPGEPASISCRSSQPLVHSNRNTYLHWYQQKPGQAPRLLIYKVSNRFSGVPDRFSGSGSGTDFTLKISRVEAEDVGVYYCGQGTQVPYTFGQGTKLEIKRTVAAPSVFIFPPSDEQLKSGTASVVCLLNNFYPREAKVQWKVDNALQSGNSQESVTEQDSKDSTYSLSSTLTLSKADYEKHKVYACEVTHQGLSSPVTKSFNRGEC
notes: Made by Fab arm exchange of the bivalent anti-CLDN6 antibody CH02 with the bivalent anti-CD3 antibody CD3-1; human IgG1 constant region; One anti-CLDN6 arm and one anti-CD3 arm; also called CLDN6-TRAB; CLDN6-targeted T-cell redirecting bispecific antibody
As to B1, the “Geo-mean value of FACS” value with mouse CLDN4 is 22; in the assay with mouse CLDN3, 27; with human CLDN9 it was 84; with human CLDN4, 35; with human CLDN6 [1], 4740; with mouse CLDN6, 1760. The “Geo-mean value of FACS” value came to 37 in the assay with human CLDN3 and 69 in the assay with hCLDN6(Q156L). Moreover, the “EC50 (read off the curve), Jurkat/NFAT-RE luciferase reporter, target cells ABC-1” value in the assay with human CLDN6 [2] was roughly 0.05 nM. In addition, the “EC50 (read off the curve), Jurkat/NFAT-RE luciferase reporter, target cells PA-1” value in the assay with human CLDN6 [3] is roughly 0.03 nM.

B2: CH03/CD3 (bispecific antibody, human IgG1, kappa, N297A)
heavy 1: B1 heavy 1 with L9P, D66G, R77S, H84R, Y102F
light 1: B1 light 1 with F7S, T31S, A46G, D85E, F94Y
heavy 2: B1 heavy 2
light 2: B1 light 2
notes: Made by Fab arm exchange of the bivalent anti-CLDN6 antibody CH03 with the bivalent anti-CD3 antibody CD3-1; human IgG1 constant region; One anti-CLDN6 arm and one anti-CD3 arm; also called CLDN6-TRAB; CLDN6-targeted T-cell redirecting bispecific antibody
Take B2: the “Geo-mean value of FACS” value turned out to be 22 with mouse CLDN4; 26 with mouse CLDN3; 184 with human CLDN9; 35 with human CLDN4; 7700 with human CLDN6 [1]; 559 with mouse CLDN6. In addition, the “Geo-mean value of FACS” value came to 37 in the assay with human CLDN3 and 98 with hCLDN6(Q156L). Moreover, the “EC50 (read off the curve), Jurkat/NFAT-RE luciferase reporter, target cells ABC-1” value in the assay with human CLDN6 [2] is roughly 0.04 nM. Moreover, the “EC50 (read off the curve), Jurkat/NFAT-RE luciferase reporter, target cells PA-1” value in the assay with human CLDN6 [3] was roughly 0.02 nM.
